Experimental findings from patent publication US6451314B1, “MHC conjugates useful in ameliorating autoimmunity” (Anergen, Inc., priority 1988, dated 2002) are described below.

The subject of series [1] is RT1.B. Kind of series: Peptide loading of rat MHC II (nitrocellulose filter binding and TLC). Particulars: 50-fold molar excess peptide, 37° C., 24 hours. As to the method:
(§1) Rat MHC II Purification and Peptide Loading. Rat class II RT1.B and RT1.D molecules were detergent solubilized (0.5% NP-40, 10 mM Tris HCl pH 8.3, 1 mM PMSF, 0.02% NaN3) from homogenized spleens and purified by affinity chromatography with monoclonal antibodies OX 6 and […]. The RT1.B/D mixture was incubated at 37° C. for 24 hours with a 50-fold molar excess of peptide AChRα 100-116, followed by 24 hours of dialysis at 4° C. against 0.1% OG/PBS to remove unbound peptide. […] This complex is stable at 4° C. for at least 8 weeks.

Series [2] concerns RT1.D. The description is as above. As to conditions: 50-fold molar excess peptide, 37° C., 24 hours. On the procedure:
as §1

Series [3] deals with Lewis rats. Kind of series: Therapeutic treatment of clinical stage 1 EAMG.
Series [4] in a line: Serum half-life of 125I-labeled I-A^k, effect of asialoletuin. Format: in vivo, mice. As to the method: (§2) The protocol for these studies was generally as follows: Affinity-purified, soluble MHC molecules were labeled with ^125I by the iodobeads method (Pierce Chemical Co., Rockford, Ill. Excess ^125I was removed by dialysis against PBS containing 0.1% neutral detergent. The quality of the labeled protein was assessed by thin layer chromatography, cellulose acetate electrophoresis, and polyacrylamide gel electrophoresis. The MHC glycoprotein was administered by tail vein injection to mice subjected to Lugol's solution in the drinking water at least one day before injection. Blood samples were obtained at different time points. The animals were then sacrificed to obtain organs of interest. Radioactivity in the blood and organ samples was detected in a gamma well counter according to standard techniques.
IA^k was labeled and administered to mice as described above. The mice were divided into three sets: (1) I-A^k (10 μg i.v.); (2) I-A^k (10 μg i.v.) plus asialoletuin (10 mg i.v.) plus asialoletuin (100 mg i.p.); and (3) I-A^k (10 μg i.v.) plus asialoletuin (10 mg i.p.). Blood was drawn at different time points and the percent of injected dose retained in the blood was calculated.

Series [5] in a line: Serum half-life of 125I-labeled I-A^s, effect of liposomes. It is filed as in vivo, mice. As to conditions: Sets 1 and 2: 10 μg, injected without blank liposomes. As to the method: as §2
I-A^s was labeled as described above. The labeled I-A^s molecules were captured inside liposomes by standard procedures (see, e.g., Remingtion's, supra). Ten mice were injected with 10 μg I-A^s, as described above, and divided into four sets: (1) I-A^s alone; (2) liposomal I-A^s; (3) liposomal I-A^s coinjected with blank liposomes; and (4) blank liposomes plus, 10 minutes later, liposomal I-A^s coinjected with blank liposomes. Blood samples were obtained at different time points after injection, and the percent of injected dose of I-A^s retained in the blood was calculated.

The test system of series [6] is T cell clones AJ1.2 and 4R3.4. Kind of series: Proliferation (MTT uptake) of T cell clones with APC and MBP(1-13) after preincubation. It is filed as cell-based, mouse. Particulars: preincubation five hours at 37° C., 72-hour incubation. On the procedure: The effects of detergent-solubilized Class II molecules were examined by culturing 1×10^5 AJ1.2 or 4R3.4 cells with 50-100 ul of purified I-A^k alone, purified I-A^k plus MBP(1-13) and medium alone for five hours at 37° C. in 5% CO2. Following this incubation the cells were diluted to 900 ul and tested for their ability to respond to antigen-presenting cells (APC) and antigen [MBP(1-13)] in a proliferation assay. Uptake of 3-(4,5-dimethyl-thiazol-2-7′)-2,5 diphenyltetrazolium bromide (MTT) was used as an indication of cell proliferation.
Data are presented as % suppression of proliferation of cells incubated with Class I+Ag compared to cells cultured with medium alone and were calculated by using the formula:
Therefore, 4R3.4 or AJ1.2 cells were preincubated with 50-100 ul of I-A^k+MBP(1-13), I-A^k, or medium alone for five hours at 37° C. The cells were then diluted to an appropriate concentration and added to APC. Antigen [MBP(1-13)] was added to a final concentration ranging from 13.3 um to 53.2 um.
APC used in the study were prepared from spleens of female A/J mice. […] Following this incubation, spleen cells were washed five times with RPMI containing antibiotics, counted, and used as APC's.
Following a 72-hour incubation period of the cells with APC and MBP(1-13), the extent of proliferation was quantitated using MTT uptake. […]

The nature of series [7]: Serum half-life of 125I-labeled I-A^k, effect of periodate/cyanoborohydride treatment. Particulars: 10 μg i.v. Format: in vivo, mice. On the procedure:
as §2
I-A^k in a phosphate buffer containing 3 mM taurodeoxycholate at pH 7.5 was labeled as described above. The labeled molecules were subjected to periodate oxidation and cyanoborohydride reduction for 5 or 21 hours at 4° C., using 20 mM sodium periodate and 40 mM cyanoborohydride (final concentrations) in 0.1 M acetate buffer at pH 5.5. The reaction was quenched by addition of ethylene glycol (final concentration 0.7%). […] Blood samples were obtained at different time points and the percent of injected dose of I-A^k retained in the blood was calculated.

YAIVHMTKLLLDYPGKI [AChRα 100-116]: the “fraction of RT1.B that bound peptide” value in series [1] is given as 70-80%. Besides, the “fraction of RT1.D that bound peptide” value in series [2] is given as 90-100%. Moreover, the entries for the “clinical stage of representative rat” value in series [3] (61 days post EAMG induction) and in series [3] (123 days post EAMG induction) were 2.5 and “Dead (day 66)”, respectively. For the same molecule, in series [3] (140 days post-induction, five weekly i.v. injections from clinical stage 1), the survival frequency was found to be 0%.

B1: I-A^k: mouse Class II MHC glycoprotein I-A^k purified by affinity chromatography on 10-2.16 antibody (protein)
MHC II alpha: EDDIEADHVGSYGITVYQSPGDIGQYTFEFDGDELFYVDLDKKETVWMLPEFAQLRRFEPQGGLQNIATGKHNLEILTKRSNSTPATNEAPQATVFPKSPVLLGQPNTLICFVDNIFPPVINITWLRNSKSVTDGVYETSFFVNRDYSFHKLSYLTFIPSDDDIYDCKVEHWGLEEPVLKHWEPEIPAPMSELTE
MHC II beta: GNSERHFVHQFQPFCYFTNGTQRIRLVIRYIYNREEYVRFDSDVGEYRAVTELGRPDAEYWNKQYLERTRAELDTVCRHNYEKTETPTSLRRLEQPSVVISLSRTEALNHHNTLVCSVTDFYPAKIKVRWFRNGQEETVGVSSTQLIRNGDWTFQVLVMLEMTPRRGEVYTCHVEHPSLKSPITVEWRAQSESARSK
Regarding B1, the mean serum half-life in series [4] (Set 1: I-A^k 10 μg i.v.) was determined as 3 min; in series [4] (Set 2: I-A^k 10 μg i.v. plus asialoletuin 10 mg i.v. plus asialoletuin 100 mg i.p.), 40 min; in series [4] (Set 3: I-A^k 10 μg i.v. plus asialoletuin 10 mg i.p.), 35 min. For the same molecule, in series [5], the serum mean half-life was 2 min. For the same molecule, the “proliferation in presence of APC and MBP(1-13)” value in series [6] was “proliferated to the same extent as cells cultured in medium”. In series [7], the serum half-life was 4 min.
